According to US20100092561A1 (published 2010):
Starred links: 1 amine or outer side, 2 acyl side, 3 side chain; linkers in the order of their positions; H or OH if unused. Non-standard residues stand in square brackets, D forms with d. No end group written: not given here. βMeF(S) = S-β-methyl-L-phenylalanine, (2S,3S)-β-methylphenylalanine, C[C@@H](c1ccccc1)[C@H](N[*:1])C(=O)[*:2]; Phe(3R-Me) = C[C@H](c1ccccc1)[C@H](N)C(=O)O

Biological target: NK1 receptor (rabbit)
Assay: cell-based or functional assay

Row | Binder | biological activity relative to SP (rabbit iris sphincter contraction) | concentration at half maximal contraction (EC50), rabbit iris sphincter muscle [nM]
1 | RPKPQQF[Phe(3R-Me)]GLM (not fully specified (C-terminus); ends and bridges not checked) [8R-(βMeF)SP] | 4 fold enhancement | 0.15
2 | RPKPQQF[βMeF(S)]GLM (not fully specified (C-terminus); ends and bridges not checked) [8S-(βMeF)SP] | 10 fold reduction | 
3 | RPKPQQ[Phe(3R-Me)][Phe(3R-Me)]GLM (not fully specified (C-terminus); ends and bridges not checked) [7R,8R-(βMeF)2SP] | 10 fold reduction | 10
